From PMC8011160, “GroEL protein of the Leptospira spp. interacts with host proteins and induces cytokines secretion on macrophages” (BMC Microbiology, 2021)

Assays:
Test in all cases: ELISA; host protein coated on microtiter wells; recombinant protein varied from 0 to 2 μM; absorbance with BSA subtracted; apparent Kd from the half-maximal binding concentration (GraphPad Prism 6)
Conditions in all cases: both partners purified
[1] = biological target: T1, laminin (purified from basement membrane of Engelbreth-Holm-Swarm mouse sarcoma) (mouse, UniProt P19137 25-3083; P02469 22-1786; P02468 34-1607)
T1 construct: source: bought: Sigma-Aldrich (purified from basement membrane of Engelbreth-Holm-Swarm mouse sarcoma)

[2] = biological target: T2, elastin (purified from bovine neck ligament) (bovine, UniProt P04985 27-747)
T2 construct: elastin, bovine, purified from neck ligament; an insoluble protein; Insoluble material of tissue; used coated on wells (ELISA) and as a solid in the co-sedimentation; also called insoluble elastin; source: bought: Sigma-Aldrich (purified from bovine neck ligament)
T2 sequence (looked up): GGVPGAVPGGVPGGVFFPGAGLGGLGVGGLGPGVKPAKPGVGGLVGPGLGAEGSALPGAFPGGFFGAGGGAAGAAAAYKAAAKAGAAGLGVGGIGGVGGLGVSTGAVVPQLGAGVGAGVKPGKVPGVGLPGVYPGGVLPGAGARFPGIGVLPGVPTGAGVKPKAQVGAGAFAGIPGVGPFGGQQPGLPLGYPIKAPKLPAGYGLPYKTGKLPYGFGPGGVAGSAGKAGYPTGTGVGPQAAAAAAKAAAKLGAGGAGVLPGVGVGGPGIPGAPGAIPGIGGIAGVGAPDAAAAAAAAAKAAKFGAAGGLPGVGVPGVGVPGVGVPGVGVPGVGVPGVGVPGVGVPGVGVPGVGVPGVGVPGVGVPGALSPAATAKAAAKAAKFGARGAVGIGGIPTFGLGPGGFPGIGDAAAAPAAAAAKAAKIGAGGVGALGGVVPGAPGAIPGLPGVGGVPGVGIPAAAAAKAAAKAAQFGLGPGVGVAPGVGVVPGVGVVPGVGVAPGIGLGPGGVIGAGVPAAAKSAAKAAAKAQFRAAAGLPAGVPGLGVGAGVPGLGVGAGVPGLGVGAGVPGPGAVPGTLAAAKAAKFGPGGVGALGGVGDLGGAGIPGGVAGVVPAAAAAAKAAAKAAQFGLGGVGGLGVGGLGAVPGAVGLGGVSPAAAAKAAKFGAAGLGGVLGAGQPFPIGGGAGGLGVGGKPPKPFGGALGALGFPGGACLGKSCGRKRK

[3] = biological target: T3, collagen Type IV (purified from basement membrane of Engelbreth-Holm-Swarm mouse sarcoma) (mouse, UniProt P02463 173-1669; P08122 184-1707)
T3 construct: collagen type IV alpha 1 chain, mouse; collagen type IV alpha 2 chain, mouse; also called collagen IV; source: bought: Sigma-Aldrich (purified from basement membrane of Engelbreth-Holm-Swarm mouse sarcoma)
T3 sequence (P02463 173-1669, chain 1 of 2): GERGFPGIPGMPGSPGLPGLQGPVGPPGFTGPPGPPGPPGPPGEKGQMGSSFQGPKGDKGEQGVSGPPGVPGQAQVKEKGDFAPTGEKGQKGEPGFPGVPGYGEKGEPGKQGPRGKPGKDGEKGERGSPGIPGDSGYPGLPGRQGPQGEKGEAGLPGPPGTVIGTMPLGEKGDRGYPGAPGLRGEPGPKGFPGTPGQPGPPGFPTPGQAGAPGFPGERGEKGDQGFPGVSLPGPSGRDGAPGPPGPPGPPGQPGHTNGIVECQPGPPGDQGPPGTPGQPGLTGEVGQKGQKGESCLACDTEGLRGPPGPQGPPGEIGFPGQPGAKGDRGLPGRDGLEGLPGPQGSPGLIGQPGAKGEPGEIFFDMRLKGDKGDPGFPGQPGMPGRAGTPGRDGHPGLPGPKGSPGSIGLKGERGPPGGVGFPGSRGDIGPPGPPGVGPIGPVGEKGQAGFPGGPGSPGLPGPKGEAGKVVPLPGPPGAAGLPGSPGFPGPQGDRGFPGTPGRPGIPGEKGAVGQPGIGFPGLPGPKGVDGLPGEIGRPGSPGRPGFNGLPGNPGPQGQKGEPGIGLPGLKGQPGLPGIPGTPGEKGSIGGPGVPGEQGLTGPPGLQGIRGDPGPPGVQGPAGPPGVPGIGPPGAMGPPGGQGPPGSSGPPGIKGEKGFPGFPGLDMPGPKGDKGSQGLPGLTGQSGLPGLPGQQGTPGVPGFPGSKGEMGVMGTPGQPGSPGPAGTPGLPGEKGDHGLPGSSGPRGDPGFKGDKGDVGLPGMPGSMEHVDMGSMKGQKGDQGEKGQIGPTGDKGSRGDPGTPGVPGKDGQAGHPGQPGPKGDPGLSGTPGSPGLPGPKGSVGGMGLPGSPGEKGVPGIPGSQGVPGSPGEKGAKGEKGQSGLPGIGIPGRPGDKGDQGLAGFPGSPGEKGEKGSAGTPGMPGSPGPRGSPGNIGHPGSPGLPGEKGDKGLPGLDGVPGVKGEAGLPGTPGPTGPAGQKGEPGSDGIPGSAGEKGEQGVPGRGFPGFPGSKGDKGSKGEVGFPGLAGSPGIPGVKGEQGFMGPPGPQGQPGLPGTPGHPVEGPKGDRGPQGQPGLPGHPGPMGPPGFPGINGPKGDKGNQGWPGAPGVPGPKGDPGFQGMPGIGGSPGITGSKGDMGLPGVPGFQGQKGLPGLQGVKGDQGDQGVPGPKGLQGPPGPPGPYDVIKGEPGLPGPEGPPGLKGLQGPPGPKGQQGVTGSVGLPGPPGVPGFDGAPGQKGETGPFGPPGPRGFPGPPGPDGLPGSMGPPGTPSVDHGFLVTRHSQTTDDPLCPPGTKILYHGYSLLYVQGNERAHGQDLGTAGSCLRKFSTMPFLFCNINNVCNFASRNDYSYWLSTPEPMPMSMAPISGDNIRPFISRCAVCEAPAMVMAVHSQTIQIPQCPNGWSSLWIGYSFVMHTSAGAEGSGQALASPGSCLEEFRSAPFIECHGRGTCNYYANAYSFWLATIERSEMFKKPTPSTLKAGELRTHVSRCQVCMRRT
T3 sequence (P08122 184-1707, chain 2 of 2): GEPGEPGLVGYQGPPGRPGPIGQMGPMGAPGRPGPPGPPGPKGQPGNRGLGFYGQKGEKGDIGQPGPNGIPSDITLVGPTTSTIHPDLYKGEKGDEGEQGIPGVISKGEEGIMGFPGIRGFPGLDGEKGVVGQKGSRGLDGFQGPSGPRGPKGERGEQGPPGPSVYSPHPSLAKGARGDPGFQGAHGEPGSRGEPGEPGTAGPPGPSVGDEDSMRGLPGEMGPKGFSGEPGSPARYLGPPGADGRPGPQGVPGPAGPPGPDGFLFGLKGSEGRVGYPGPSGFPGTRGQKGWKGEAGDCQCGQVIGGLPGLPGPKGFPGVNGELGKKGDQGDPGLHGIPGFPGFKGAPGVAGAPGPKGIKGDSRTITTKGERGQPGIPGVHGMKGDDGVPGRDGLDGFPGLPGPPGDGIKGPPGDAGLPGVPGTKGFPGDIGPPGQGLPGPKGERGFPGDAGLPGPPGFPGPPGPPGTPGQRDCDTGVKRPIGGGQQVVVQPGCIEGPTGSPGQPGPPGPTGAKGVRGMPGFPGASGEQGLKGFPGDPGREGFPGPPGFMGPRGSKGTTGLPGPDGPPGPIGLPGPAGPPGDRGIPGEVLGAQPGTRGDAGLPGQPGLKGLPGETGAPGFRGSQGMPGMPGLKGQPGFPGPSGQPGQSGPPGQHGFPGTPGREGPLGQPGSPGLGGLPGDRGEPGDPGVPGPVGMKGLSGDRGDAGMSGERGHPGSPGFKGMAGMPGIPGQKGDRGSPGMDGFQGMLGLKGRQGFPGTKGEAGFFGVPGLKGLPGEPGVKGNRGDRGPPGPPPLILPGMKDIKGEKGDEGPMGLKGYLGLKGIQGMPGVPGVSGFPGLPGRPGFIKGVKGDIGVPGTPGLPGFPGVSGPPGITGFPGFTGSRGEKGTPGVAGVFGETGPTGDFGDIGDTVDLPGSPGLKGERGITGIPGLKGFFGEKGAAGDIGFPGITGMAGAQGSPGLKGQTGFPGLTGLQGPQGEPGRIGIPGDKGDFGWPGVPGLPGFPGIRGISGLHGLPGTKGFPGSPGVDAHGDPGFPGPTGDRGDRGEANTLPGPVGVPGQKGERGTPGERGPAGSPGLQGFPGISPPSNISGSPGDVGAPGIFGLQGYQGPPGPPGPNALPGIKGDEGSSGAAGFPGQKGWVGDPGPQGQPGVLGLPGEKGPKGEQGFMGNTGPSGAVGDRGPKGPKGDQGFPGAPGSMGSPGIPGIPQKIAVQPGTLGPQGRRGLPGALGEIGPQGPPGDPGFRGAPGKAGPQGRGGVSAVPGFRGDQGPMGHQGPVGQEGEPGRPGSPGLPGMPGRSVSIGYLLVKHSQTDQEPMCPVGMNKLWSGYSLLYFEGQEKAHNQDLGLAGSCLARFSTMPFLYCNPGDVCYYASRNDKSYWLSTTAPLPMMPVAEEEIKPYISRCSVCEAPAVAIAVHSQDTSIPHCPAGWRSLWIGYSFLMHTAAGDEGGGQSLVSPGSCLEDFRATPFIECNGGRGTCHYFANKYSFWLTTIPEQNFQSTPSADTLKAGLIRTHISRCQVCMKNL

[4] = biological target: T4, fibrinogen (purified from human plasma) (human, UniProt P02671-2 20-644; P02675 31-491; P02679-2 27-437)
T4 construct: fibrinogen alpha chain, human; fibrinogen beta chain, human; fibrinogen gamma chain, human; source: bought: Sigma-Aldrich (purified from human plasma)
T4 sequence (looked up) 1: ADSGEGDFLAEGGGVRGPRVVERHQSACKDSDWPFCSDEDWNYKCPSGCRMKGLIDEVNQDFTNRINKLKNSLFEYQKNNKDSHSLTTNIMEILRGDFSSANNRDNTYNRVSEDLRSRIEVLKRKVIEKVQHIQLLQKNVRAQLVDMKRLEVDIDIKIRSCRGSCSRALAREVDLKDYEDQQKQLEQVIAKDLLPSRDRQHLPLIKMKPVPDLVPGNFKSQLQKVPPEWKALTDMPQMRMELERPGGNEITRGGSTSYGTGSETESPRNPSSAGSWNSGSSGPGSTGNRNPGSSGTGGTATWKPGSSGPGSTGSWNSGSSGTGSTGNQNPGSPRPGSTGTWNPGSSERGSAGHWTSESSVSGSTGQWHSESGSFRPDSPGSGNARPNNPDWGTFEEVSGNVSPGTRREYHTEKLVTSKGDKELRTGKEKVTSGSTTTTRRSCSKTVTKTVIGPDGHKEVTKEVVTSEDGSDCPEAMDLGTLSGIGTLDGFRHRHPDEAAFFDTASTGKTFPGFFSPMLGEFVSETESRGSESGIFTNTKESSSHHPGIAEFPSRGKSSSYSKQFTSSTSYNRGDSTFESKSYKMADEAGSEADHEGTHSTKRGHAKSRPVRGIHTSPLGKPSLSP
T4 sequence (looked up) 2: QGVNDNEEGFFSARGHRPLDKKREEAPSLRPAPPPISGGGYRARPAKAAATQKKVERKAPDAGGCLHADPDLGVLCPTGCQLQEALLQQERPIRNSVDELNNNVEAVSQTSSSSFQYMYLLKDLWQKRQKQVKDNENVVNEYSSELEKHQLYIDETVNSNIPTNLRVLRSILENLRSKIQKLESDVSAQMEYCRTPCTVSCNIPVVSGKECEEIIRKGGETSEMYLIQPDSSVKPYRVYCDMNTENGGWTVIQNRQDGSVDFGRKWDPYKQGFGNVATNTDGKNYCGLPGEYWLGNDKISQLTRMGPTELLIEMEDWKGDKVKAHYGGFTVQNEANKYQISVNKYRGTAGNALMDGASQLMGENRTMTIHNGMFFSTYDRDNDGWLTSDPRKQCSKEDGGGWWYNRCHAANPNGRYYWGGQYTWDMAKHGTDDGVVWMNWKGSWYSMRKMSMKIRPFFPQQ
T4 sequence (looked up) 3: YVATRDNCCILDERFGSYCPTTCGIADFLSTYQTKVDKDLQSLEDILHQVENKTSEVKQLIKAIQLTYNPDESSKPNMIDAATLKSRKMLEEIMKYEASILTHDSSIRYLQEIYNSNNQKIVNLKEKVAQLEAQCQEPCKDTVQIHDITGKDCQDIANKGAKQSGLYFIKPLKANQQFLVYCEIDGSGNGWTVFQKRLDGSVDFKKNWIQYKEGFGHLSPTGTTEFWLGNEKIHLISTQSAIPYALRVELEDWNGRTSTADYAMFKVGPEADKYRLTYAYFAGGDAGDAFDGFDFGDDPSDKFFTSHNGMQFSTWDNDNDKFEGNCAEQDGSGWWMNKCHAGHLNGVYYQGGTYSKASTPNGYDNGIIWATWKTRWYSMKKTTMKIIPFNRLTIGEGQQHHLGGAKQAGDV

[5] = biological target: T5, collagen Type I (purified from rat tail) (rat, UniProt P02454 152-1207; P02466 86-1125)
T5 construct: collagen type I alpha 1 chain, rat; collagen type I alpha 2 chain, rat; also called collagen I; source: bought: Sigma-Aldrich (purified from rat tail)
T5 sequence (P02454 152-1207, chain 1 of 2): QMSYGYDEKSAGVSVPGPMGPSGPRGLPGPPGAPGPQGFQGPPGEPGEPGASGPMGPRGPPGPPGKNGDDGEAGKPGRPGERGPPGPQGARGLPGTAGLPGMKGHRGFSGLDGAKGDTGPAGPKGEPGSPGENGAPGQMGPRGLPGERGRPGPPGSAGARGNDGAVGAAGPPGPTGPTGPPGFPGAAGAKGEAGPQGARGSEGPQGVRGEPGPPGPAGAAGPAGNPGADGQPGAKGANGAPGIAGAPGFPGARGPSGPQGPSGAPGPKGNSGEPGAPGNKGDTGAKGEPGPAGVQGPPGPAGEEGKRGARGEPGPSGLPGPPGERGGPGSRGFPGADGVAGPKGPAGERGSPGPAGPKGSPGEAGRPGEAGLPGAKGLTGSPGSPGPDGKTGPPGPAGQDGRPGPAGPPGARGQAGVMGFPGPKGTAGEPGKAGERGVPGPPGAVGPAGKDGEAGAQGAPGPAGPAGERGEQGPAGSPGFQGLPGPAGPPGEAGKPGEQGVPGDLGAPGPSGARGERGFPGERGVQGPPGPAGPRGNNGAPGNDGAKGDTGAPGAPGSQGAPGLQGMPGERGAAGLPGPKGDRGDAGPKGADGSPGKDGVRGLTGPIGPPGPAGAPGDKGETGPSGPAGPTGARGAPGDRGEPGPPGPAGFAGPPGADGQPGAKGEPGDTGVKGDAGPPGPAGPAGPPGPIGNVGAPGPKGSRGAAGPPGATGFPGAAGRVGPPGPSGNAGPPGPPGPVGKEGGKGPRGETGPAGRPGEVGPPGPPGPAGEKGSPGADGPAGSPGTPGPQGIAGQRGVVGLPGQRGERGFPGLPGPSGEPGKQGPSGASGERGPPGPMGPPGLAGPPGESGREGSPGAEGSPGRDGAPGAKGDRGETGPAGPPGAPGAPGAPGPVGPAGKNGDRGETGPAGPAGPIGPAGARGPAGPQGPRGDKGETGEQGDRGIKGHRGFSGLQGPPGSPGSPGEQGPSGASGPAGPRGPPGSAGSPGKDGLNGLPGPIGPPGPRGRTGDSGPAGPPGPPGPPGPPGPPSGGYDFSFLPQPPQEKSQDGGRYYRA
T5 sequence (P02466 86-1125, chain 2 of 2): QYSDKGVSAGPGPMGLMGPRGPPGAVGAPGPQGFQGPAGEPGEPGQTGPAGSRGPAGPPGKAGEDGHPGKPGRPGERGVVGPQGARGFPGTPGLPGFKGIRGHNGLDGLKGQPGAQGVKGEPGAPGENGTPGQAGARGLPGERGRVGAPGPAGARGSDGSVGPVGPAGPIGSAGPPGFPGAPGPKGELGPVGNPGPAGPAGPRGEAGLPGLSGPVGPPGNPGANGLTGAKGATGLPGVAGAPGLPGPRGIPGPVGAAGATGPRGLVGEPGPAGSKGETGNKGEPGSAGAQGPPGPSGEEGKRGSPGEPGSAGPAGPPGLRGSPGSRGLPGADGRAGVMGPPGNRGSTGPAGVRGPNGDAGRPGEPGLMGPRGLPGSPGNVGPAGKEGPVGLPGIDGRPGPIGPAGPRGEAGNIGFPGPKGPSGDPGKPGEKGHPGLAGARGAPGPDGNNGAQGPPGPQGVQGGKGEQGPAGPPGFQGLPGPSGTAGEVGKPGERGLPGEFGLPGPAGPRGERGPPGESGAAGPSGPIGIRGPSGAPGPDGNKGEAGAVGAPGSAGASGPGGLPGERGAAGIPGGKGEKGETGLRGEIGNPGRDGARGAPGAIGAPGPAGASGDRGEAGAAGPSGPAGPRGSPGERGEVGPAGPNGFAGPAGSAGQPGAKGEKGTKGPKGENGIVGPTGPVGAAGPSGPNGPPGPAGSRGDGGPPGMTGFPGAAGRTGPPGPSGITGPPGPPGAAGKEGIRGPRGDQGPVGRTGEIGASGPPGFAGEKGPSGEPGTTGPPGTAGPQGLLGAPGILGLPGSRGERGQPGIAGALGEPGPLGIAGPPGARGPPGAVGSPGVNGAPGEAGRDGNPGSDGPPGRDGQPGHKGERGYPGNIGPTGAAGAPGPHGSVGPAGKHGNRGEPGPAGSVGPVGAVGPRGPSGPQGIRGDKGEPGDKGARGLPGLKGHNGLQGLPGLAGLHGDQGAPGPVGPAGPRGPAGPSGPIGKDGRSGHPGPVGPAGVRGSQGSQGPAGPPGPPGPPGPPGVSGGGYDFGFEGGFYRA

Binder	Kd [1] [nM]	Kd [2] [nM]	Kd [3] [nM]	Kd [4] [nM]	Kd [5] [nM]
GroEL protein of Leptospira interrogans (recombinant, His-tagged) (natural protein, UniProt P61438 1-546, looked up, GroEL (chaperonin 60, HSP60) of L. interrogans serovar Copenhageni strain Fiocruz L1-130, GenBank AAS69936.1, 60 kDa; Cloned BamHI/HindIII into the vector pAE; as far as I recall pAE adds an N-terminal His6 tag; also called chaperonin 60; Cpn60; source: LPS removed on Detoxi-Gel) MAKDIEYNETARRKLLEGVNKLANAVKVTLGPKGRNVVIDKKFGAPTITKDGVTVAKEIELEDPLENMGAQMVKEVSTKTNDVAGDGTTTATILAQSIINEGLKNVTAGANPMSLKKGIDKAVTAAVESIQKRAVKIENKKDIANVASISANNDNTIGNLIADAMDKVGKDGVITVEEAKSIETTLDVVEGMQFDRGYISPYMVTDAESMVATLNDPFILIYDKKISSMKDLIHILEKVAQAGKPLVIISEEVEGEALATIVVNTLRKTISCVAVKAPGFGDRRKSMLEDIAILTGGQVISEDLGMKLENTTLQMLGRANKVTVDKENTTIIEGKGQTKEIQGRIGQIKKQIEDTTSEYDREKLQERLAKLAGGVAVIHVGAATEVEMKEKKARVEDALSATRAAVEEGIVPGGGLTLLKAQEAVGSLKLDGDEATGAKIIFRALEEPIRMITSNAGLEGSVIVEHAKAKKGNEGFNALTMVWEDMIQAGVVDPAKVVRSALQNAASIGSMILTTEVTITDKPDKDAPNPMAGMGGGGMGGMGGMM	115 ± 12	23 ± 3	6 ± 1		
truncated form of leptospiral immunoglobulin-like protein B (LigBC, amino acids 631-1156) (domain or fragment, leptospiral immunoglobulin-like protein B (LigB), GenBank AAS69085, amino acids 631-1156, 56 kDa; half of immunoglobulin-like repeat 7 plus domains 8 to 12; source: LPS removed on Detoxi-Gel) AEIKNTSGSKGITNTLTPGSSEISAALGSIKSSKVILKVTPAQLISIAVTPINPSVAKGLIRQFKATGTYTDHSVQDVTALATWSSSNPGKAMVNNVTGSVTTVATGNTNIKATIDSISGSSVLNVTPALLTSIEITPTINSITHGLTKQFKATGIFSDKSTQNLTQLVTWISSDPSKIEIENTSGKKGIATASKLGSSNIKAVYKFIQSSPIPITVTDLKLKSITISPSSSSIAKGLTQQFKAIGTFIDGSEQEITNLVTWYSSKSDVAPINNAANAKGLATALSIGSSNISAIYNSISSNKINFNVSAATLDSIKINPVNNNIAKGLTQQYTALGVYSDSTIQDISDSVTWSSSNSDSISISNSTETKGKATALQIGNSKITATYNSISENIDITVSAATLSSISISPINTNINATVSKQFFAVGTYSDGTKADLTSSVTWSSSNKSQAKVSNASKTKGLVTGIASGNSIITATYGSVSGNTILTVNKTDTIAPTVQSVVSLSPTTIQVVYSESINNKEALDLS	41 ± 3	4 ± 1	7 ± 1	4 ± 1	8 ± 2
